These results are taken from US20240109974A1 (SHANDONG SIMCERE BIOPHARMACEUTICAL, published 2024).

Substitutions are numbered along the chain they refer to.

For assay [1], the target named is T1, Cynomolgus TNFR2-His (Sino 90102-C08H) (cynomolgus monkey, UniProt A0A2K5VET2 132-366).
T1 construct: Bought protein; also called cynomolgus monkey TNFR2; recombinant cynomolgus monkey TNFR2 protein; not shown: His tag
T1 sequence: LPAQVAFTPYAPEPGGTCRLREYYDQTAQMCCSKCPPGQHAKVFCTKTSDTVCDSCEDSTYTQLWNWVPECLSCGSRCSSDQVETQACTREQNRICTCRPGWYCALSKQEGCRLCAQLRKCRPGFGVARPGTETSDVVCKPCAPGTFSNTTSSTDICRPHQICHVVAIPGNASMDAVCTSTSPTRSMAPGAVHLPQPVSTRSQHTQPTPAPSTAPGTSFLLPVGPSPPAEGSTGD
As to the kind of experiment: ELISA, cynomolgus TNFR2-His coated. The protocol: The test humanized antibody against TNFR2 (as described in Example 1, the antibody was comprised of variable regions linked to IgG-Fc; the WT chimeric antibody also adopted the IgG-Fc structure) was subjected to 3.33-fold gradient dilution, loaded with 100 μl/well, and incubated with shaking at room temperature for 1.5 hours. The plate was washed, and then a working solution of murine anti-human IgG Fc-HRP (diluted at 1:10000) was added, loaded with 100 μl/well, and incubated with shaking at room temperature for 1.0 hour. The plate was washed again, and then the substrate TMB of HRP was added to develop colour. A stop solution was added to stop the reaction, and then a microplate reader (MD 13) was used to read the absorbance value. The binding curve of an antibody was drawn with antibody concentration as the abscissa and corresponding OD value as the ordinate, and fitted with four parameters (GraphPad Prism9) to calculate the EC50 value. The smaller the EC50 value, the stronger the binding ability of an antibody to human/cynomolgus monkey TNFR2. The binding effect of a humanized antibody was normalized to its corresponding human-murine chimeric antibody WT (see SEQ ID NOs: 38-43 for the sequence). The higher the percentage value, the better the binding effect of the humanized antibody. The results of binding of an anti-TNFR2 antibody to a human TNFR2 protein are shown in FIG. 1 and Table 4, and the results of binding of an anti-TNFR2 antibody to cynomolgus monkey TNFR2 are shown in FIG. 2 and Table 4.

Assay [2] addresses T2, Human TNFR2-His (Sino 10417-H08H) (human, UniProt P20333 23-257).
T2 construct: Bought protein; also called recombinant human TNFR2 protein; not shown: His tag
T2 sequence (looked up): T1 sequence with G16S, P36S, Q117P, H164N, A210E, G216S, V223M
As to the kind of experiment: SPR (Biacore T200), antibody captured on Protein A chip. The protocol: (§1) Biacore was used to detect the specific binding of a test anti-TNFR2 antibody to human and cynomolgus monkey TNFR2 proteins. In this experiment, a Protein A chip was used, the time required for the chip to capture the diluted antibody was determined by manual run, so that the Rmax of the saturated binding to an antigen was 50 RU. […] The affinity of an antibody for an antigen was determined by using multi-cycle dynamics. In each cycle, an antibody was injected and then a TNFR2 protein at a gradient concentration was injected, so that the antigen and the antibody underwent binding and dissociation processes. After each cycle, the Protein A chip was regenerated with Glycine pH 1.5 (removing the protein on the chip). The affinity KD of an antibody and an antigen was fitted with BIAcore T200 analysis software.
In general terms: Surface plasmon resonance follows binding to a sensor surface in real time, without labels.

Assay [3] has as its target T1, Cynomolgus TNFR2-His (Sino 90102-C08H). The description is as above. As for the experimental part: as §1
The target in assay [4] is T3, human TNFR2 on the surface of CHO-TNFR2 cells (human, UniProt P20333 23-461).
T3 construct: whole, on cells
T3 sequence (looked up): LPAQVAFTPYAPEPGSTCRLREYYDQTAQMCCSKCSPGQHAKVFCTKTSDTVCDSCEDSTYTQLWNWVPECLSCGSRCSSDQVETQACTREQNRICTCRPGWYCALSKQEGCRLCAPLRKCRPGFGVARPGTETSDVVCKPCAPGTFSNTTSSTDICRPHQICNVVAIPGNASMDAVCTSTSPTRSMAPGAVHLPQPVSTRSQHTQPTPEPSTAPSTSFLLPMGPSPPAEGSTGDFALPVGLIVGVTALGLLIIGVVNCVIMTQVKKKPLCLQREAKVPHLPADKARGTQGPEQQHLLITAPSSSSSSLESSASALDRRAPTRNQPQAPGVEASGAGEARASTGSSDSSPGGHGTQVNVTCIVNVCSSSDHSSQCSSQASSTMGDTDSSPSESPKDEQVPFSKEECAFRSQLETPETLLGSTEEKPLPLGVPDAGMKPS
As to the kind of experiment: competition flow cytometry on CHO-TNFR2 cells, competitor TNFα-biotin; area under the MFI curve. More on the design: unit not given beside the values. As for the experimental part:
CHO stable cells highly expressing human TNFR2 were used for the experiment (the same as CHO-TNFR2 in Example 4). The CHO-TNFR2 cells were digested, washed twice with DPBS, then stained with Live/Dead (L/D) (20 minutes at room temperature), and plated at a density of 1×10⁵ cells/50 μl/well. A test anti-TNFR2 antibody was diluted to 6 μg/ml with a staining buffer as the starting concentration: the antibody was subjected to 3.33-fold gradient dilution, with a total of 7 concentration points. The diluted antibody was added to the plated cells at 50 μl/well, and the mixture was mixed well by gentle pipetting, and incubated at 4° C. for 30 minutes. Then the diluted 100 ng/ml of human TNFα-biotin was added at 100 μl/well, and the mixture was mixed well by gentle pipetting, and then incubated at 4° C. for 30 minutes. The mixture was washed twice with a staining buffer, and then 0.12 μg/ml PE-streptavidin (BioLegend, Cat #405204) was added at 100 μl/well; the resulting mixture was incubated at 4° C. for 30 minutes. The mixture was washed twice with a staining buffer, and then 150 μl of staining buffer was added to resuspend the cells; signals were detected by a flow cytometer (Thermo Attune NxT). The inhibitory curve of an antibody was drawn with antibody concentration as the abscissa and corresponding MFI value as the ordinate, and fitted with four parameters (GraphPad Prism9) to calculate the IC50 value. The smaller the IC50 value, the stronger the ability of an antibody to inhibit the binding of human TNFα to human TNFR2. The blocking effect of a humanized antibody was normalized to its corresponding human-murine chimeric WT antibody. The higher the percentage value, the better the inhibitory effect of the humanized antibody.
In general terms: In flow cytometry, cells or beads pass a laser one at a time.

B1: 224-Hu4 (antibody, V domains shown)
VH: QVQLVQSGSELKKPGASVKVSCKASGFNNKDIYMHWVRQAPGQGLEWMGRIDPATGNTKHDPKFQDKAVLSSDTSVSTAYLQISSLKAEDTAVYYCARSPYGDFGAMDYWGQGTLVTVSS
VL: DIQMTQSPSSLSASVGDRVTITCTASSSVSSNYLHWYQQKPGKAPKLWIYSTSNLPSGVPSRFSGSGSGTDFTLTISSLQPEDFATYYCHQYHRSPWTFGQGTKVEIK
notes: Humanized form of #224; also called VH9 + VL6
What is called EC50 is the concentration at which the effect is half-maximal. As usually defined, the Kd is the free concentration of one partner at which half of the binding sites on the other are occupied at equilibrium, for simple one-to-one binding. As a reminder, the koff is a measure of how fast the partners let go of each other. Usually kon stands for a measure of how fast the partners come together. In turn, B1 came in with an EC50 in assay [1] of 9.56 ng/mL. In assay [2], this molecule displayed a Kd of 5.59 nM, a koff of 0.00072 s⁻¹ and an on-rate (kon) of 129000 M⁻¹ s⁻¹. In assay [3], the Kd turned out to be 3.17 nM, the koff is 0.000881 s⁻¹ and the kon was 278000 M⁻¹ s⁻¹. The same molecule returned an AUC in assay [4] of 14200.

B2: 224-Hu5 (antibody, V domains shown)
VH: B1 VH
VL: B1 VL with W48L, F72Y, T73S
notes: Humanized form of #224; also called VH9 + VL9
Consider B2, for which a half-maximal effect in assay [1] (EC50) was put at 9.69 ng/mL. In assay [2], this molecule yielded a dissociation constant (Kd) of 4.28 nM, a koff of 0.000682 s⁻¹ and an on-rate constant (kon) of 159000 M⁻¹ s⁻¹. Also, in assay [3], the Kd was 3.31 nM, the off-rate constant (koff) turned out to be 0.000828 s⁻¹ and the on-rate constant (kon) stood at 250000 M⁻¹ s⁻¹. The molecule also registered an AUC in assay [4] of 14600.
